Reference: article PMC5553292

Target: Recombinant human PDK2 (pyruvate dehydrogenase kinase 2) (human)
Assay: dynamic light scattering

Recombinant human PDK2 (pyruvate dehydrogenase kinase 2) (enzyme)
stoichiometry N: 2
